Results on one protein are retold here after ChEMBL document CHEMBL2074118, “Effects of tacrolimus and cyclosporin A on peptide transporter PEPT1 in Caco-2 cells” (Pharm Res, 2001).

Substrate in the series: CN(CC(=O)O)C(=O)CN
The series can be described thus: TP_TRANSPORTER: uptake in Caco-2 cells. Type of series: functional, cell-based.

B1: Solute carrier family 15 member 1 (Homo sapiens), P46059 (protein)
chain: MGMSKSHSFFGYPLSIFFIVVNEFCERFSYYGMRAILILYFTNFISWDDNLSTAIYHTFVALCYLTPILGALIADSWLGKFKTIVSLSIVYTIGQAVTSVSSINDLTDHNHDGTPDSLPVHVVLSLIGLALIALGTGGIKPCVSAFGGDQFEEGQEKQRNRFFSIFYLAINAGSLLSTIITPMLRVQQCGIHSKQACYPLAFGVPAALMAVALIVFVLGSGMYKKFKPQGNIMGKVAKCIGFAIKNRFRHRSKAFPKREHWLDWAKEKYDERLISQIKMVTRVMFLYIPLPMFWALFDQQGSRWTLQATTMSGKIGALEIQPDQMQTVNAILIVIMVPIFDAVLYPLIAKCGFNFTSLKKMAVGMVLASMAFVVAAIVQVEIDKTLPVFPKGNEVQIKVLNIGNNTMNISLPGEMVTLGPMSQTNAFMTFDVNKLTRINISSPGSPVTAVTDDFKQGQRHTLLVWAPNHYQVVKDGLNQKPEKGENGIRFVNTFNELITITMSGKVYANISSYNASTYQFFPSGIKGFTISSTEIPPQCQPNFNTFYLEFGSAYTYIVQRKNDSCPEVKVFEDISANTVNMALQIPQYFLLTCGEVVFSVTGLEFSYSQAPSNMKSVLQAGWLLTVAVGNIIVLIVAGAGQFSKQWAEYILFAALLLVVCVIFAIMARFYTYINPAEIEAQFDEDEKKNRLEKSNPYFMSGANSQKQM
Take B1: the Km (usually the substrate concentration at which the rate is half of its maximum) came out at 830 µM.
